Data set [1] is described as follows: Gel filtration on Sephacryl S-300 HR (aggregate formation, method 1). The class given is physicochemical. Further details: key to KAV: KAV=(VE-V0)/(VT-V0); fraction of available elution volume. The note with it: Sephacryl S-300 HR. The protocol: A pH neutral aqueous buffer system is used in the gel filtration and the insulin derivatives in the aggregated state are applied to the column in the form of a pharmaceutical preparation at a concentration of 600 nmol insulin/ml. […] However, when the actual state of aggregation in a pharmaceutical preparation is to be assessed, the medium of the preparation, exclusive the Zn^2+ which is insulin bound, is used as the eluent for the gel filtration. A column of 28×1 cm is eluted at a rate of 15 ml/h. Insulin derivatives were injected (200 μl) as a standard formulation comprising 600 μM derivative, 200 or 300 μM Zn^2+, 20 mM NaCl (or varied), 16 mM phenol, 16 mM m-cresol, 7 mM sodium phosphate at pH 7.5. Exclusion limit of Sephacryl® S-300 HR is stated by the manufacturer, Pharmacia, as a molecular weight of 1,500 kDa for globular proteins and 400 kDa for linear dextrans. In practice the elution of solutes of different size is characterised by the available volume as KAV values: KAV=(VE-V0)/(VT-V0) where VE is elution volume, V0 is void volume, e.g. elution volume of blue dextran, VT is total volume. Thus, the KAV value is independent of column dimension. […]

Data set [2] is described as follows: Gel filtration method 2 on Superose 6HR (HPLC, 37° C.). The class given is physicochemical. Conditions: 140 mM NaCl, 10 mM tris, pH 7.4; for KAV (Superose 6HR): standards; for KAV (Superose 6HR) 2Zn^2+/6 ins: 2 Zn2+/6 ins; for KAV (Superose 6HR) 3Zn^2+/6 ins: 3 Zn2+/6 ins. The protocol:
An alternative method to measure the capability of insulin derivatives of forming soluble high molecular weight aggregates was developed, suitable for HPLC equipment. The column dimensions, injection volume, and flow rate correspond to the first method, whereas the temperature is increased to 37° C. and the phosphate buffer is changed to trishydroxymethylaminomethan hydrochloride and additional sodium chloride. The aggregated state of insulin is defined to elute before the gel filtration standard aldolase like in the first method.
(In general: In gel filtration, larger molecules generally elute earlier.)

Where [3] appears, read: pH 7.4 eluent, standards applied dissolved in water.

In the case of “Albumin: molecular size standard, Mw 67 kDa [reference compound]”, the KAV in data set [1] (setting [3]) is given as ~0.38.
As to “Aldolase: molecular size standard, Mw 158 kDa [reference compound]”, in data set [1] (setting [3]), the KAV is ~0.32. Further, the “KAV (Superose 6HR)” value in data set [2] amounted to 0.50.
Taken in the same sequence, the figures for Ferritin [reference compound] were 0.19 and 0.40.
Regarding Lys^B29(N^ε cholesteryloxycarbonyl), in data set [1] (eluent 125 mM NaCl, 20 mM sodium phosphate pH 7.4, sample 600 μM derivative, 200 μM Zn2+, 0-20 mM NaCl, phenol, m-cresol, pH 7.5), the KAV turned out to be 0.00.
Consider “Lys^B29(N^ε-lithocholoyl-β-Ala-) des(B30) HI”, for which, in data set [2], the “KAV (Superose 6HR) 2Zn^2+/6 ins” value is reported as 0.00 and the “KAV (Superose 6HR) 3Zn^2+/6 ins” value stood at 0.13.
Taken in the same sequence, the figures for “Lys^B29(N^ε-lithocholoyl-β-Asp-) des(B30) HI” were 0.18 and 0.11.
For the molecule “Lys^B29(N^ε-lithocholoyl-γ-aminobutanoyl-) des(B30) HI”, in data set [2], the “KAV (Superose 6HR) 2Zn^2+/6 ins” value came out at 0.06 and the “KAV (Superose 6HR) 3Zn^2+/6 ins” value is on record as 0.00.
In data set [1] (setting [3]), “Thyroglobulin: molecular size standard, Mw 669 kDa [reference compound]” yielded a KAV of 0.08. Moreover, the “KAV (Superose 6HR)” value in data set [2] came to 0.28.

B1: Ovalbumin: molecular size standard, Mw 43 kDa (protein, UniProt P01012 2-386, looked up)
Ovalbumin: GSIGAASMEFCFDVFKELKVHHANENIFYCPIAIMSALAMVYLGAKDSTRTQINKVVRFDKLPGFGDSIEAQCGTSVNVHSSLRDILNQITKPNDVYSFSLASRLYAEERYPILPEYLQCVKELYRGGLEPINFQTAADQARELINSWVESQTNGIIRNVLQPSSVDSQTAMVLVNAIVFKGLWEKAFKDEDTQAMPFRVTEQESKPVQMMYQIGLFRVASMASEKMKILELPFASGTMSMLVLLPDEVSGLEQLESIINFEKLTEWTSSNVMEERKIKVYLPRMKMEEKYNLTSVLMAMGITDVFSSSANLSGISSAESLKISQAVHAAHAEINEAGREVVGSAEAGVDAASVSEEFRADHPFLFCIKHIATNAVLFFGRCVSP
On to B1, for which the “KAV (Superose 6HR)” value in data set [2] is listed as 0.58.

B2: Ribonuclease: molecular size standard, Mw 13.7 kDa (protein, UniProt P61823 27-150, looked up)
Ribonuclease pancreatic: KETAAAKFERQHMDSSTSAASSSNYCNQMMKSRNLTKDRCKPVNTFVHESLADVQAVCSQKNVACKNGQTNCYQSYSTMSITDCRETGSSKYPNCAYKTTQANKHIIVACEGNPYVPVHFDASV
In data set [1] (setting [3]), B2 returned a KAV of 0.63. In addition, in data set [2], the “KAV (Superose 6HR)” value amounted to 0.72.

B3: Catalase: molecular size standard, Mw 232 kDa (protein, UniProt P00432 2-527, looked up)
Catalase: ADNRDPASDQMKHWKEQRAAQKPDVLTTGGGNPVGDKLNSLTVGPRGPLLVQDVVFTDEMAHFDRERIPERVVHAKGAGAFGYFEVTHDITRYSKAKVFEHIGKRTPIAVRFSTVAGESGSADTVRDPRGFAVKFYTEDGNWDLVGNNTPIFFIRDALLFPSFIHSQKRNPQTHLKDPDMVWDFWSLRPESLHQVSFLFSDRGIPDGHRHMNGYGSHTFKLVNANGEAVYCKFHYKTDQGIKNLSVEDAARLAHEDPDYGLRDLFNAIATGNYPSWTLYIQVMTFSEAEIFPFNPFDLTKVWPHGDYPLIPVGKLVLNRNPVNYFAEVEQLAFDPSNMPPGIEPSPDKMLQGRLFAYPDTHRHRLGPNYLQIPVNCPYRARVANYQRDGPMCMMDNQGGAPNYYPNSFSAPEHQPSALEHRTHFSGDVQRFNSANDDNVTQVRTFYLKVLNEEQRKRLCENIAGHLKDAQLFIQKKAVKNFSDVHPEYGSRIQALLDKYNEEKPKNAVHTYVQHGSHLSAREKANL
Turning to B3, the KAV in data set [1] (setting [3]) was determined as 0.30.

For the origin of these results see US6451762B1 (Novo Nordisk A/S, priority 1997, dated 2002).
